Data reported in patent US20260139057A1 (University of California, published 2026).

Experiments:
[1] = molecular target: T1, recombinant human integrin αvβ8 ectodomain (human, UniProt P06756 31-992; P26012 43-681); experiment: cell-based or functional assay
[2] = molecular target: T1, recombinant human integrin αvβ8 …; experiment: cell-based or functional assay; remark: listed apart in the source
[3] = molecular target: T1, recombinant human integrin αvβ8 …; experiment: KinExA, solution-based affinity; antigen form not stated
Source text: Samples with serial dilutions are drawn over solid-phase beads coupled with one binding partner to capture the complimentary binding molecule, which is detected by flow of fluorophore-labeled antibody solution binding to a separate epitope on the same molecule being measured. Signals are used to calculate free concentration in solution after equilibrium is reached (i.e. to determine binding affinity KD), or under pre-equilibrium conditions over time (i.e. to determine binding kinetics). Free antigen remaining in solution at equilibrium for varying initial antibody concentrations in constant initial concentration of antigen as determined by the KinExA software, based on optimized least-squares fitting to a reversible binding equation.
A Kinetic Exclusion Assay (KinExA®, Sapidyne Instruments, Inc., Boise, ID) was used to measure the binding affinity of H4C8 (Seq ID NOs. 34, 35) produced with the CH1-CH3 domain from IgG4 (Seq ID NO: 59). […] Samples with serial dilutions are drawn over solid-phase beads coupled with one binding partner to capture the complimentary binding molecule, which is detected by flow of fluorophore-labeled antibody solution binding to a separate epitope on the same molecule being measured. […]

[4] = molecular target: T2, human integrin αvβ8 on transfected cells (CHO cells stably transfected; HEK 293 cells stably expressing αvβ8) (human, UniProt P06756 31-1048; P26012 43-769); experiment: flow cytometry on unfixed CHO cells expressing human αvβ8, antibody titrated, hyperbolic least-squares fit (m3 = KD); curves on D00025 [Cont.]
T2 construct: whole, on cells; also called CHO αvβ8 cells; αvβ8 expressing CHO cells
Description: (§1) FIG. 17: Characterization of cell surface binding of humanized affinity optimized anti-αvβ8 antibodies. The cell surface binding affinities of H4C8, H4G9, H4C10, H4G8 compared to HuC6D4F12 expressed as IgG4 (S228P to prevent arm exchange, R409K and L445P to reduce aggregation and to promote stability). […] Cell surface affinity was determined using the least-squares fit model based on the hyperbolic equation y=m1+m2*m0/(m3+m0), where y=MFI at different avb8 concentrations; m0=αvβ8 concentration; m1=MFI with no αvβ8; m2=MFI at saturation; and m3=KD.
(§2) FIG. 18: Binding characteristics of H4C8 of formalin fixed αvβ8 compared to HuC6D4F12 or ADWA11 2.4 (from Pat no. US2020/0079855 A1). CHO αvβ8 expressing cells were fixed in 2% buffered formalin in PBS for 15 min at RT and then stained at the indicated concentrations as described in FIG. 17. The binding affinities to unfixed or formalin fixed cells is shown. Cell surface affinity was determined using the least-squares fit model based on the hyperbolic equation y=m1+m2*m0/(m3+m0), where y=MFI at different αvβ8 concentrations; m0=αvβ8 concentration; m1=MFI with no αvβ8; m2=MFI at saturation; and m3=KD.

[5] = molecular target: T2, human integrin αvβ8 on transfected …; experiment: flow cytometry on CHO cells expressing human αvβ8 fixed in 2% buffered formalin for 15 min, antibody titrated, hyperbolic least-squares fit (m3 = KD); curves on D00025 [Cont.]
Description: as §1, §2

[6] = molecular target: T3, integrin αvβ5 ectodomain (immobilized) (Homo sapiens (Human), UniProt P06756 31-992; P18084 24-719); experiment: ELISA on immobilized integrin ectodomains plated at 1 µg/ml, blocked with 1% BSA
T3 construct: R&D Systems; copies: 1 + 1
Description: (§3) FIG. 20: H4C8 maintains ability to block αvβ8-mediated TGF-β activation similar to HuC6D4F12 while maintaining specificity for αvβ8. A) Shown are inhibition curves for the indicated antibody abilities to block the ability of immobilized human αvβ8 to activate human L-TGF-β presented on the cell surface of TMLC by GARP. The assays were performed exactly as described in (Seed et al, Sci Immunol, 2021 and Campbell, et al, Cell 2019). The estimated ED50 values are shown. The antibodies used were HuC6D4 IgG2a, HuC6D4F12 IgG2a or H3.H12, H4C8 or H4C8m (murine VL Fr4) as human IgG4. B) The specificity of H4C8 was tested against immobilized ectodomains of αvβ1, αvβ3, αvβ5, αvβ6 and αvβ8 (either purchased from R &D systems or produced in ExpiCHO cells. All ectodomains were plated at 1 μg/ml and after washing, wells were blocked with 1% BSA. The indicated antibodies (either human IgG4 isotype or H4C8 IgG4).

[7] = molecular target: T4, integrin αvβ1 ectodomain (immobilized) (Homo sapiens (Human), UniProt P06756 31-992; P05556 21-728); experiment: as above
T4 construct: R&D Systems; copies: 1 + 1
Description: as §3

[8] = molecular target: T5, integrin αvβ3 ectodomain (immobilized) (Homo sapiens (Human), UniProt P06756 31-992; P05106 27-718); experiment: as above
T5 construct: Bought from R&D Systems or made in ExpiCHO cells; copies: 1 + 1
Description: as §3

[9] = molecular target: T6, integrin αvβ6 ectodomain (immobilized) (human, UniProt P06756 31-992; P18564 22-709); experiment: as above
T6 construct: extracellular domain; Bought from R&D Systems or made in ExpiCHO cells; also called immobilized human αvβ6
Description: as §3

[10] = molecular target: T2, human integrin αvβ8 on transfected …; experiment: flow cytometry, surface binding to CHO αvβ8 cells

T2 sequence (P06756 31-1048, chain 1 of 2): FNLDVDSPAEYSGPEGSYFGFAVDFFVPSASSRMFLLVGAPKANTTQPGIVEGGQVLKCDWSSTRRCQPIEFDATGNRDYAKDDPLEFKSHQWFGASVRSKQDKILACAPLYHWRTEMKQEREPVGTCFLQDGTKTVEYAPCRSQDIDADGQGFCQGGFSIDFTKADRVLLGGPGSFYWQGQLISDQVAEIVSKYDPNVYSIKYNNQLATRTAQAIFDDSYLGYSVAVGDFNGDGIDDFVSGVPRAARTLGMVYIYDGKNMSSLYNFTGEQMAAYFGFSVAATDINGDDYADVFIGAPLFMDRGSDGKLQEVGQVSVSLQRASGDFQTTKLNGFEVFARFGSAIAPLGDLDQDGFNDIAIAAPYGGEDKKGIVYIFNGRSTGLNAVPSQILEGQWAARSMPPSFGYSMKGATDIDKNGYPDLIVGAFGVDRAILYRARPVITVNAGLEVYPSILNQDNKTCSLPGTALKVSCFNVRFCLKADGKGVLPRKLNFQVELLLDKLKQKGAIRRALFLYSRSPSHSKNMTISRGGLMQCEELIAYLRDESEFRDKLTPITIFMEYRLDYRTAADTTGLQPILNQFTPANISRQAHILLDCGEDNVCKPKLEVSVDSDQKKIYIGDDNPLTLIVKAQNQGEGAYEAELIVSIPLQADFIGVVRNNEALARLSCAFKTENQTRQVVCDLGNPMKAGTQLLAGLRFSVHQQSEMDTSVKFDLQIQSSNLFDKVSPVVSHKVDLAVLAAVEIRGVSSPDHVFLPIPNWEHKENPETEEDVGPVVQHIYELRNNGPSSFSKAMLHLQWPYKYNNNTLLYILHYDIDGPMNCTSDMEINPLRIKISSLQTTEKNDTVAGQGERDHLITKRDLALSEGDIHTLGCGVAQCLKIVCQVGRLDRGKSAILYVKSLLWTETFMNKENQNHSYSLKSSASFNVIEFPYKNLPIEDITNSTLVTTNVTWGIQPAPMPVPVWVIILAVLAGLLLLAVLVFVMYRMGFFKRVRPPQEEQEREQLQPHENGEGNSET
T2 sequence (P26012 43-769, chain 2 of 2): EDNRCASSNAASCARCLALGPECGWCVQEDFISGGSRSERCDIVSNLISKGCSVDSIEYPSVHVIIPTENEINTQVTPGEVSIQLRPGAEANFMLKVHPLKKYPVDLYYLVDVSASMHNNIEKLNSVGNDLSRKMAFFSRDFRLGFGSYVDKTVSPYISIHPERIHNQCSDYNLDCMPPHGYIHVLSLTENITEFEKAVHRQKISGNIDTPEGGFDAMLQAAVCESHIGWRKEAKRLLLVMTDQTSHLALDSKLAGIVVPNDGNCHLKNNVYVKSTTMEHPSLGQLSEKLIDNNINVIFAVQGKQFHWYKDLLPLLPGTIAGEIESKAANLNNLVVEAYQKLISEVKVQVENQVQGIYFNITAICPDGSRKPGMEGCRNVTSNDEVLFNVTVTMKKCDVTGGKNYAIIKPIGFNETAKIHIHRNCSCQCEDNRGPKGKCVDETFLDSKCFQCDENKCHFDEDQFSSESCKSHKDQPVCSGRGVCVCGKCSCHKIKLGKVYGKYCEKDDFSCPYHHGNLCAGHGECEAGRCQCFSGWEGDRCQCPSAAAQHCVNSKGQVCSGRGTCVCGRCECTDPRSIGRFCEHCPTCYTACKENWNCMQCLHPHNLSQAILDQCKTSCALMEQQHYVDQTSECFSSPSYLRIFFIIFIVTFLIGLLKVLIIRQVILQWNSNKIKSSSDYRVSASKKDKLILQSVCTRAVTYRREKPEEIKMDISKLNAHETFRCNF
T1 sequence (P06756 31-992 limits assumed, chain 1 of 2): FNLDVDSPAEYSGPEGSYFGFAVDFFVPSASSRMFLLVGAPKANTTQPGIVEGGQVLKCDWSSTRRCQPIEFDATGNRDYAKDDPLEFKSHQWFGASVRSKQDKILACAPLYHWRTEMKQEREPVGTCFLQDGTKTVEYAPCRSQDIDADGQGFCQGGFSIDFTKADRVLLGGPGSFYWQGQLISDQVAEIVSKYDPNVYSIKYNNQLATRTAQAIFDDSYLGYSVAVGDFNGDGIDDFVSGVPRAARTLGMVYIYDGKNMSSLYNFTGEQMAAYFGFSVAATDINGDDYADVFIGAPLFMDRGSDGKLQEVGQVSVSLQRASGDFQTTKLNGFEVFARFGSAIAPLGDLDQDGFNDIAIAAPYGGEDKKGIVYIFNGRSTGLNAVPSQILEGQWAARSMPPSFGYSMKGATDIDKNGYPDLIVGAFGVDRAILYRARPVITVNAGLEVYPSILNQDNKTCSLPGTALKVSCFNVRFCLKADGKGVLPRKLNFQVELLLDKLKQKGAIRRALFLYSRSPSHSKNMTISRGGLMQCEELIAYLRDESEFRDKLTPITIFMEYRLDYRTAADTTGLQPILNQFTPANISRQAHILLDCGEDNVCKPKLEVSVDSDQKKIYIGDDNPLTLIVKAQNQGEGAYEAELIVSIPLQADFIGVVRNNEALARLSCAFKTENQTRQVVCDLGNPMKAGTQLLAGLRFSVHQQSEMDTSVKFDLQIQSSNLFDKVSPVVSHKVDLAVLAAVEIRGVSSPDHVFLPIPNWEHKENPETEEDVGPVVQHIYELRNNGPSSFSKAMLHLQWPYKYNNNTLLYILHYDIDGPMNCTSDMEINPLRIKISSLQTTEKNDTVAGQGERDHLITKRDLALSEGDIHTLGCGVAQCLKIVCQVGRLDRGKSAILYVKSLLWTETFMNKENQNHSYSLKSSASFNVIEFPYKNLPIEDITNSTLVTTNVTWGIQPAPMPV
T1 sequence (P26012 43-681 limits assumed, chain 2 of 2): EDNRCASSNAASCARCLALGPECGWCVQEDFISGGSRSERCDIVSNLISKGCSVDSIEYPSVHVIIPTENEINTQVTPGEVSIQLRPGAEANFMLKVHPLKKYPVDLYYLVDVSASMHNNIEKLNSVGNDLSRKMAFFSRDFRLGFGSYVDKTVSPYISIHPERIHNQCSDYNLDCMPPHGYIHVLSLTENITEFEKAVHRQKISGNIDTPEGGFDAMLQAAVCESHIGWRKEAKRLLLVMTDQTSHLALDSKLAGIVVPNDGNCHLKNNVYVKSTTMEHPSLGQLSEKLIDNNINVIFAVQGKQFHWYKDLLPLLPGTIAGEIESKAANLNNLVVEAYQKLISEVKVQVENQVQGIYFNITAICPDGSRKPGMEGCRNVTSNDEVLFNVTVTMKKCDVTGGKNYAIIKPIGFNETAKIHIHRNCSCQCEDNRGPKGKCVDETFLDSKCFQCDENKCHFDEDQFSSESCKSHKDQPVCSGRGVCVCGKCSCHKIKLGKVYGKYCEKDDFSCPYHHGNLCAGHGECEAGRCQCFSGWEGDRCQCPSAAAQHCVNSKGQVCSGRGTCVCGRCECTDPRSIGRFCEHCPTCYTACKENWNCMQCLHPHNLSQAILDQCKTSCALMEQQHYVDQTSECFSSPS
T4 sequence (P06756 31-992 limits assumed, chain 1 of 2): as the sequence (P06756 31-992 limits assumed, chain 1 of 2) above
T4 sequence (P05556 21-728 limits assumed, chain 2 of 2): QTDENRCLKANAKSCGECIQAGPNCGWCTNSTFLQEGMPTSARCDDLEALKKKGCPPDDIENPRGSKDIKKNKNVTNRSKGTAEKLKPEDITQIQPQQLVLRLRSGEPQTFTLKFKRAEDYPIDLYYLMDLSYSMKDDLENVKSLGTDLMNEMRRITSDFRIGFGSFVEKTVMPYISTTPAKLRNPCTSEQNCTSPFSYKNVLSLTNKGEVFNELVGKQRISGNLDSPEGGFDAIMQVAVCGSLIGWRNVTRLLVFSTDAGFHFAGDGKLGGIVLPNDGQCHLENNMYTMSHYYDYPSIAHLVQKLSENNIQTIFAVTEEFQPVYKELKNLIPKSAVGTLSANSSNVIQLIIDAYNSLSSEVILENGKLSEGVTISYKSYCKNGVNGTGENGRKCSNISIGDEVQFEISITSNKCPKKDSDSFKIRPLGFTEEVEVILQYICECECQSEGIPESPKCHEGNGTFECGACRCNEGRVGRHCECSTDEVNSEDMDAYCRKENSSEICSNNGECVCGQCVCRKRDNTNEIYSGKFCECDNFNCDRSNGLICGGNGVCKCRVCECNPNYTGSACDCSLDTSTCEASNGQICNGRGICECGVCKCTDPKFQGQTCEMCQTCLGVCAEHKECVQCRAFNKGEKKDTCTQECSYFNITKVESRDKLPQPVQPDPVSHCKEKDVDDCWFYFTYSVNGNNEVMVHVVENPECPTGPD
T5 sequence (P06756 31-992 limits assumed, chain 1 of 2): as the sequence (P06756 31-992 limits assumed, chain 1 of 2) above
T5 sequence (P05106 27-718 limits assumed, chain 2 of 2): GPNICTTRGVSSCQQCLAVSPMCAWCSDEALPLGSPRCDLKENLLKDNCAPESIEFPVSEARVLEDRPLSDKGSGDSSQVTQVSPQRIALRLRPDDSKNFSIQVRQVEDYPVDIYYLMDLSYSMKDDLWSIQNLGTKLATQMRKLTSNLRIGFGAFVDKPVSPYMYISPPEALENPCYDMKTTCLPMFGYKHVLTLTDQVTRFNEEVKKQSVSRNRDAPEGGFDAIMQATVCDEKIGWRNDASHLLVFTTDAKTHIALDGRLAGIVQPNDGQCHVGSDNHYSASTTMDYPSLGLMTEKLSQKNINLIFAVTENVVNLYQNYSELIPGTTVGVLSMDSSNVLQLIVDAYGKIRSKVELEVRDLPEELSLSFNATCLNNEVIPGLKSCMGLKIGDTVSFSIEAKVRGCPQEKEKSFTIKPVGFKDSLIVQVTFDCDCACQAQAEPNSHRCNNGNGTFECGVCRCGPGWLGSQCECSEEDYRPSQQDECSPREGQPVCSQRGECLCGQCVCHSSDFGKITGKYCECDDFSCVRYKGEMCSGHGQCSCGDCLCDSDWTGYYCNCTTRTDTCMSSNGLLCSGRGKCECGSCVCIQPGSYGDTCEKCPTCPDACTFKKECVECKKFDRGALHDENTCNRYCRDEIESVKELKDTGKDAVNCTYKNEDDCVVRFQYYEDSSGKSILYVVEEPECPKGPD

B1: H4C8 human IgG4 (antibody, V domains shown)
VH: QVQLVQSGAEVKKPGASVKVSCKVSGYTLTRQSMHWVRQAPGKGLEWMGRINTETGEPTYAQKFQGRVTMTQDTSTDTAYMELSSLRSEDTAVYFCAIFYYGRDTWGQGTTVTVSS
VL: EIVMTQSPATLSVSPGERVTLSCRSSQSLLHSRSRKNYLAWYQQKPGQAPRLLIYWASTRETGVPARFSGSGSGTEFTLTISSLQSEDFAVYYCKQSYNLLSFGQGTKVEIKR
notes: also called H4C8 IgG4
EC50 of inhibition of αvβ8-mediated TGF-β activation [1]: 100 nM
ED50 of the inhibition of αvβ8-mediated TGF-β activation (immobilized αvβ8, TMLC GARP/L-TGF-β reporter cells) [2]: 0.01 µg/mL
Kd [3]: 0.00707 nM
Kd [4]: 2.6 nM
Kd [5]: 3.6 nM
binding result [6]: no binding
binding result [7]: no binding
binding result [8]: no binding
binding result [9]: no binding

B2: Clone H1.1 as human IgG4 (antibody, V domains shown)
VH: QVQLVQSGAEVKKPGASVKVSCKVSGYTLTKLSMHWVRQAPGKGLEWMGRINTEDGEPIYAQKFQGRVTMTEDTSTDTAYMELSSLRSEDTAVYYCAIFYYGRDSWGQGTTLTVSS
VL: EIVMTQSPATLSVSPGERATLSCRASQSLLHSRTRKNYLAWYQQKPGQAPRLLIYWASTRATGIPARFSGSGSGTEFTLTISSLQSEDFAVYYCKQSYNLLSFGQGTVLEIKR
fold lower affinity than F12 mouse IgG2a [10]: 70 fold
